Source: US20230227559A1 (INSTITUT PASTEUR, published 2023)

T1: hFcgRIIA R131 (human, UniProt P12318)
T1 construct: on the cell surface of CHO transfectants, FLAG tagged; Named only on the sheet; one member of the group m10; also called hFcγRIIA R131; CD32A R131
T1 sequence (receptor chain, looked up): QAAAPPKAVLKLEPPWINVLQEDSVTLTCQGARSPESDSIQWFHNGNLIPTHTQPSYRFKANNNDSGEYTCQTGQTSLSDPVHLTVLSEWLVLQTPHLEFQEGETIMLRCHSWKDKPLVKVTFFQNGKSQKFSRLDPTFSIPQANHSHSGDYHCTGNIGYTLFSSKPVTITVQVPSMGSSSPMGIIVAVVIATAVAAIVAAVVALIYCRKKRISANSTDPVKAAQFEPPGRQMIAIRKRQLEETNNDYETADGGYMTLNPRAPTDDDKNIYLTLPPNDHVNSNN

T2: hFcgRIIB (human, UniProt P31994)
T2 construct: on the cell surface of CHO transfectants, FLAG tagged; Named only on the sheet; one member of the group m10; also called hFcγRIIB; CD32B
T2 sequence (receptor chain, looked up): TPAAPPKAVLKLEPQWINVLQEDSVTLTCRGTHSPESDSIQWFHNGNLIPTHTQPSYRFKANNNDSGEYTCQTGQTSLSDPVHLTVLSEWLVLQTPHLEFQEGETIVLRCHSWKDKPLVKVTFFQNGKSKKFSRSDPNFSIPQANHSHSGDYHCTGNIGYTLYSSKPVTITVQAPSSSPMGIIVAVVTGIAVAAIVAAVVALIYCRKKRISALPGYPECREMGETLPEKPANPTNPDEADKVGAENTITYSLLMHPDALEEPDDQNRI

T3: hFcgRIIA H131 (human, UniProt P12318)
T3 construct: on the cell surface of CHO transfectants, FLAG tagged; Named only on the sheet; one member of the group m10; also called hFcγRIIA H131; CD32A H131
T3 sequence (receptor chain, looked up): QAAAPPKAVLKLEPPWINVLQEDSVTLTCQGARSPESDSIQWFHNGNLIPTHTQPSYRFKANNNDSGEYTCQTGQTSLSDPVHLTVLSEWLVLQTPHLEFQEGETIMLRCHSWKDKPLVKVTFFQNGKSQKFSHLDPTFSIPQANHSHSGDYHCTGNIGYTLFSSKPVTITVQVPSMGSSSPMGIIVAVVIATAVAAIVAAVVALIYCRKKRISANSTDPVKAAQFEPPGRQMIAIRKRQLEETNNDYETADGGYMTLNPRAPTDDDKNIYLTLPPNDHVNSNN


Tests used:
[1] = target: T4, His-tagged ectodomains of hFcγRIIIA variant V158 (human, UniProt P08637 19-208); experiment: SPR (ProteON), His-tagged hFcγRIIIA V158 ectodomains on chip, mAb injected
T4 construct: also called human CD16A V158 ectodomains; hFcγRIIIA (V158 variant); not shown: His tag
Method: Surface Plasmon Resonance analysis. His-tagged ectodomains of hFcγRIIIA variant V158 were covalently immobilized on a His-tag capture sensor chip for a ProteON instrument (BioRad). A range of dilutions of anti-hFcγRIII mAbs were injected onto the chip. Background binding was measured on an empty HTE sensor chip channel and subtracted from the binding values observed on coated channels. The resulting sensorgrams were fitted using a “1:1 binding with mass transfer” model, and association (Kₒₙ), dissociation (Koff) constants and KD were calculated as the […] using BIAevaluation 4.1 software.
The affinity of the antibodies of the invention for the hFcγRIIIA (V158 variant) has been assessed by SPR as detailed above.

hFcgRIIA R131 = target: T1, hFcgRIIA R131; experiment: FACS on CHO cells expressing FLAG tagged hFcγRIIA R131; mAb at 1 µg/ml, PE-labelled F(ab')2 donkey anti-human IgG at 5 µg/ml
Method: (§1) Specificity. A collection of Chinese Hamster Ovarian (CHO) cells expressing FLAG tagged human FcγR (Bruhns P. et al, 2009) was used to analyze the specificity of the antibody against the hFcγR family. Cells were incubated on ice for 30 min with mAbs at 1 μg/ml, washed 3 time in PBS containing 0.5% BSA and 2 mM EDTA (MACS buffer) and then incubated on ice for 30 min with 5 μg/ml PE-labelled F(ab′)₂ Donkey Anti-Human IgG (Jackson ImmunoResearch). Data acquisition was performed on a MACSQuant flow cytometer (Miltenyi Biotec), and data analyzed using the Flowjo Software (FlowJo).
(§2) The specificity of the chimeric modified antibody 3G4NA towards the members of the hFcγR family has been assessed as exposed in the Material & Methods part, in CHO cells expressing FLAG tagged human FcγR. The cells were incubated with 3G4NA mAbs at 1 μg/ml, washed and then incubated on ice for 30 min with 5 μg/ml PE-labelled F(ab′)₂ Donkey Anti-Human IgG. The FACS results are disclosed on FIG. 1.

hFcgRIIB = target: T2, hFcgRIIB; experiment: FACS on CHO cells expressing FLAG tagged hFcγRIIB; mAb at 1 µg/ml, PE-labelled F(ab')2 donkey anti-human IgG at 5 µg/ml
Method: as §1, §2

[2] = target: T5, hFcγRI (FLAG tagged, expressed on CHO cells) (human, UniProt P12314 16-374); experiment: FACS on CHO cells expressing FLAG tagged hFcγRI; mAb at 1 µg/ml, PE-labelled F(ab')2 donkey anti-human IgG at 5 µg/ml
T5 construct: whole, on cells; also called CD64
Method: as §1, §2

[3] = target: T6, hFcγRIIIA V158 (FLAG tagged, expressed on CHO cells) (human, UniProt P08637 17-254); experiment: FACS on CHO cells expressing FLAG tagged hFcγRIIIA V176 (V158 in the text); mAb at 1 µg/ml, PE-labelled F(ab')2 donkey anti-human IgG at 5 µg/ml
T6 construct: whole, on cells; also called CD16A V158
Method: as §1, §2

hFcgRIIIA F176 = target: T7, hFcgRIIIA F176 (human, UniProt P08637); experiment: FACS on CHO cells expressing FLAG tagged hFcγRIIIA F176; mAb at 1 µg/ml, PE-labelled F(ab')2 donkey anti-human IgG at 5 µg/ml
T7 construct: on the cell surface of CHO transfectants, FLAG tagged; also called hFcγRIIIA F158; CD16A F158
Method: as §1, §2

hFcgRIIA H131 = target: T3, hFcgRIIA H131; experiment: FACS on CHO cells expressing FLAG tagged hFcγRIIA H131; mAb at 1 µg/ml, PE-labelled F(ab')2 donkey anti-human IgG at 5 µg/ml
Method: as §1, §2

T4 sequence (P08637 other isoform, or with tags, fused parts or gaps mutant): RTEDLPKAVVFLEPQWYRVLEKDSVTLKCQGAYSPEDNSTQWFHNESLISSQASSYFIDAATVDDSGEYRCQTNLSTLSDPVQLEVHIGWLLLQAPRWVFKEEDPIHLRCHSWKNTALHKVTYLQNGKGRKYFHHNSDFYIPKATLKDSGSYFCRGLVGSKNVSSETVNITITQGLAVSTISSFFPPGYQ
T7 sequence (P08637 17-254 limits assumed): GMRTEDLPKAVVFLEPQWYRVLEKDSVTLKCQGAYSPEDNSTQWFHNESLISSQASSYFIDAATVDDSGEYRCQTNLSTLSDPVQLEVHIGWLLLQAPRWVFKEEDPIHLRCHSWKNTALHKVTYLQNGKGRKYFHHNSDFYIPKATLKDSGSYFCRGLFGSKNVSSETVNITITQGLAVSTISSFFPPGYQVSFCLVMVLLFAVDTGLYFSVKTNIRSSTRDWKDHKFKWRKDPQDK
T6 sequence (P08637 17-254 F176V limits assumed): as the sequence (P08637 17-254 limits assumed) above, with F160V counted along it
T5 sequence (P12314 16-374): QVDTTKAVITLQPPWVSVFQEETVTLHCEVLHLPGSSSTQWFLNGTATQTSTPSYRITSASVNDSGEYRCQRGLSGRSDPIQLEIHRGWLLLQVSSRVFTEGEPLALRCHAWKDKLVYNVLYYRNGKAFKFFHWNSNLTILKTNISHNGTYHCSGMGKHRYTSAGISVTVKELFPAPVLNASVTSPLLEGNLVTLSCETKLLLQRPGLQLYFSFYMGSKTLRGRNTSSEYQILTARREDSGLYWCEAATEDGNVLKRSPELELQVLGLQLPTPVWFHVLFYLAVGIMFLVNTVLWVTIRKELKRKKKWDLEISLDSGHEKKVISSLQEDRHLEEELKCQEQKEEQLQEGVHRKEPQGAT

Kd [1] [nM]	koff [1] [s⁻¹]	kon [1] [M⁻¹ s⁻¹]	binding result (hFcgRIIA R131)	binding result (hFcgRIIB)	binding result [2]	binding result [3]	binding result (hFcgRIIIA F176)	binding result (hFcgRIIA H131)	Binder
7.9	0.001	130000	–	–	–	–	–	–	Chimeric 3G4 hIgG1 (chimeric mouse-human IgG1 kappa anti-hFcγRIII mAb, clone 3G4) (antibody, also called mouse-human 3G4; 3G4 mouse-human chimeric monoclonal antibody) heavy: not shown light: DIVLTQSPSSISASLGDRITITCQATQDIIKNLNWYQQKPGKPPSFLIYYATEVAEGVPSRFSGSGSGSDYSLTISNLESEDFADYYCLQFYEFPYTFGGGTKLEIKRTVAAPSVFIFPPSDEQLKSGTASVVCLLNNFYPREAKVQWKVDNALQSGNSQESVTEQDSKDSTYSLSSTLTLSKADYEKHKVYACEVTHQGLSSPVTKSFNRGEC
16	0.00034	19000	no binding (tested: 1 µg/ml)	no binding (tested: 1 µg/ml)	binds	binds	binds	no binding (tested: 1 µg/ml)	Chimeric 3G4 hIgG1 N297A format (chimeric modified mouse-human antibody 3G4NA) (antibody, also called 3G4N297A; mAb 3G4 N297A) heavy: not shown light: DIVLTQSPSSISASLGDRITITCQATQDIIKNLNWYQQKPGKPPSFLIYYATEVAEGVPSRFSGSGSGSDYSLTISNLESEDFADYYCLQFYEFPYTFGGGTKLEIKRTVAAPSVFIFPPSDEQLKSGTASVVCLLNNFYPREAKVQWKVDNALQSGNSQESVTEQDSKDSTYSLSSTLTLSKADYEKHKVYACEVTHQGLSSPVTKSFNRGEC
